Source: paper PMC8776730 (Nature Communications, 2022)

Tests used:
FAP-α = target: T1, FAP-α (Homo sapiens, UniProt Q12884); assay: FAP-α tailoring (cleavage) followed by HPLC and MALDI-TOF; type: biochemical; conditions: 100 μM molecule, FAP-α 50 μM, 12 h; buffer 50 mM Tris, 1 M NaCl, 1 mg/mL BSA, pH 7.5; HPLC (M3, M5), MALDI-TOF (M1)
T1 construct: purchased R&D SYSTEM
T1 sequence (Q12884 1-760): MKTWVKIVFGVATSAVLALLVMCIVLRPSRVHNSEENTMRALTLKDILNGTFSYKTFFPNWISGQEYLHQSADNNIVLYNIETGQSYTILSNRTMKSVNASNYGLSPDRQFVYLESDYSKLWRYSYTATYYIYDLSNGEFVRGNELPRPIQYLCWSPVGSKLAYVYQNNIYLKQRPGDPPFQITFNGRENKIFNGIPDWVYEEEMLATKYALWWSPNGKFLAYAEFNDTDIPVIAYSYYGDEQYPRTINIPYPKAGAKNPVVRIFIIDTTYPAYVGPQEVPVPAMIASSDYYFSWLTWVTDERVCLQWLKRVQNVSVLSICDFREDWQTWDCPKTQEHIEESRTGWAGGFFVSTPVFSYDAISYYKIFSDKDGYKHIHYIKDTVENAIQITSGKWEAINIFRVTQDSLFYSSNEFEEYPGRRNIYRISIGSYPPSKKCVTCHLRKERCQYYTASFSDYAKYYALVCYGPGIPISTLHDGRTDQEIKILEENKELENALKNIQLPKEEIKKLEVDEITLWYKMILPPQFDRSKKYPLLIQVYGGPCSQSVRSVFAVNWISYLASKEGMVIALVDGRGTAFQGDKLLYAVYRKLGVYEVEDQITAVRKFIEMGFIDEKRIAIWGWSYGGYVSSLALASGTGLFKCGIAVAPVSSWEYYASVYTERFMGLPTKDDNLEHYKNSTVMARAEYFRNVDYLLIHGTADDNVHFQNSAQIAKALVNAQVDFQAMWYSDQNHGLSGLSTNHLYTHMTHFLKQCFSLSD
From the text: To further investigate the FAP-α specific tailoring and BIVA probe assembly in situ simultaneously (Fig. 4a), the high-performance liquid chromatography (HPLC), TEM, and matrix-assisted laser desorption/ionization time-of-flight (MALDI-TOF) mass spectrometry were applied for the characterizations purpose. To specify the cutting of the response tailoring motif (Gly-Pro-Ala), pre-synthesized molecules of R-M3, M3 and M5 were set as controls. […] Comparing the residues peaks with R-M3, the primary sharp peak at 27.4 min can be identified by the R-M3 control (27.6 min). […] The retention time of M1 after co-incubation with inactivated FAP-α was similar to that of M3 (Supplementary Fig. 14). After hydrolyzed by FAP-α, the residues of M1 in situ assembled into nanofibers structures under the complex buffer (Fig. 4c and Supplementary Fig. 15). […] In order to further evaluate the specificity of M1 for different enzymes, including FAP-α, pepsin, pancreatin, lipase, and BSA, we used ThT (Thioflavin T) as a detection probe (Fig. 4e).
Fig. 4 The FAP-α specific molecule tailoring and inducing in situ assembly. a The illustration the working mechanism of BIVA probe based on FAP-α catalytic hydrolysis. b HPLC curves of M3 and M5 after incubation with FAP-α in buffer. R-M3, M3 and M5 were synthesized controls. The TEM image (c), and the MALDI-TOF (d), results of M1 after tailoring by FAP-α in buffer, the red arrows represent the assembled fibrils of M1 after incubation with FAP-α. e The enzyme specificity of M1 in buffer. Buffer: 50 mM Tris, 1 M NaCl, 1 mg/mL, BSA, pH 7.5; Concentration of M1 and M3: 100 μM; Concentration of FAP-α: 50 μM; incubation time: 12 h. […]

[1] = Critical assembly concentration (CAC) by pyrene fluorescence probe; type: physicochemical
From the text: In order to study the molecular design and their assembly behavior, we modular designed and synthesized seven molecules (Table 1), which respectively were BIVA probe: M1 (mPEG-GPAKLVFFGC(IR783)GRGD); the non- FAP-α tailoring molecule: M2 (mPEG-AGGKLVFFGC(IR783)GRGD) scrambled response tailoring motif of Gly-Pro-Ala with Ala-Gly-Gly; the non-labeling molecule of M1: M3 (mPEG-GPAKLVFFGCGRGD) removed IR783 labeling; FAP-α tailoring residue of M1: R-M1 (AKLVFFGC(IR783)GRGD); the non-targeting molecule: M4 (mPEG-GPAKLVFFGC(IR783)GDTG) scrambled targeting tailoring motif of Arg-Gly-Asp with Asp-Thr-Gly; the non-labeling molecule of M2: M5 (mPEG-AGGKLVFFGCGRGD) removed IR783 labeling; FAP-α tailoring residue of M3: R-M3 (AKLVFFGCGRGD). All the synthesized procedure (Supplementary Fig. 1) and characterizations of these seven molecules can be found in SI (Supplementary Figs. 2–8). […] Without IR783 labeling, molecules of M3 and M5 decreased the CAC value in solution relative to M1 and M2, which could be attributed to the proximity of the steric hindrance of hydrophilic IR783 to the self-assembly motif (Supplementary Fig. 9). […] The CAC was quantitatively calculated by fluorescence probe of pyrene.

| Substance | tailoring (cleavage) by FAP-α (FAP-α) | Critical assembly concentration (CAC) ([1]; aqueous solution, analyzed based on pyrene fluorescence) [µM] | pyrene I1/I3 ([1]; conc 100 μM) | pyrene I1/I3 ([1]; conc 200 μM) | pyrene I1/I3 ([1]; conc 300 μM) | pyrene I1/I3 ([1]; conc 400 μM) | pyrene I1/I3 ([1]; conc 500 μM) | pyrene I1/I3 ([1]; conc 600 μM) | pyrene I1/I3 ([1]; conc 700 μM) | pyrene I1/I3 ([1]; conc 800 μM) | pyrene I1/I3 ([1]; conc 900 μM) |
| --- | --- | --- | --- | --- | --- | --- | --- | --- | --- | --- | --- |
| mPEG-GPAKLVFFGC(IR783)GRGD [M1] | cut into two parts of R-M1 and PEG residue | >500 | – | – | – | – | – | – | – | – | – |
| mPEG-GPAKLVFFGCGRGD [M3, the non-labeling molecule of M1 (no IR783)] | totally cleaved | – | 1.163 | 1.158 | 1.141 | 1.131 | 1.152 | 1.067 | 1.052 | 1.029 | 0.978 |
